Experimental findings from article PMC3002392 are described below.

The test deals with Na+,K+-ATPase α-subunit (endogenous, MDCK cells) (dog (endogenous in MDCK)) (UniProt P50997). Nature of the test: co-IP.

With “AS160 (endogenous, MDCK cells) (natural protein)”, the fold increase of co-precipitated AS160 with 40 uM Compound C against vehicle came out at 7 fold.
